Columns and labels:
Cav3.1 = molecular target: T1, Cav3.1 (Homo sapiens, UniProt O43497); test: Whole-cell patch clamp of Cav3.1 dependent LVA calcium current in HEK-293/Cav3.1 cells transiently transfected with γ subunits (Example 1); assay type: cell-based; conditions: for Effect on current kinetics or voltage dependency: HEK-293/Cav3.1; for Peak current density, % of control value: HEK-293/Cav3.1, normalized to adCGI vector control, mean±S.E.M.; for Activation V 0.5 / Activation k / Deactivation tau @ −100 mV, Fast / Inactivation Tau @ −20 mV / Inactivation V 0.5 / Inactivation k / Time to peak @ −20 mV / V peak: Table 2
T1 construct: expressed in transfected cells; host or cells: HEK-293, stably transfected
Protocol: (§1) 2.3. Transfection. Untransfected HEK-293 cells, HEK-293 cell lines stably transfected with Cav3.1, and HL-1 cells were transiently transfected with vectors containing γ subunit, GFP, and modified CFP cDNAs using Lipofectamine 2000 reagent (InVitrogen) as per the manufacturer's recommendations. HEK-293 cells were grown to 70-80% confluence before transfection. HL-1 cells were grown to 50-75% confluence before transfection.
2.4. Electrophysiology. Whole-cell calcium currents were recorded using an Axopatch-1 D patch clamp system and Clampex 8.0 software. Pipettes were fabricated from borosilicate glass and had typical resistances of 2-4 MΩ. The pipette solution contained (in mM): 130 NaCl, 10 EGTA, 2 MgCl2, 1 CaCl2, 10 HEPES, 3 Tris-ATP, and either 0.3 Li2GTP or 0.3 Tris-GTP, adjusted to pH 7.4 with NaOH and 280 mOsm with sucrose. The bath solution contained (in mM): 137 NaCl (for HEK-293 experiments) or 120 TEACl (for HL-1 experiments), 1 KCl, 1 MgCl2, 0.33 NaH2PO4, 2 CaCl2 (for HEK-293 experiments) or 5 CaCl2 (for HL-1 experiments), 10 glucose (for HL-1 experiments only), 10 HEPES, and 30 μM TTX (for HEK-293 experiments only), adjusted to pH 7.4 with NaOH (for HEK-293 experiments) or TEAOH (for HL-1 experiments) and 280 mOsm with sucrose. NaCl was used as the major salt in the pipette solution order to eliminate any outward K+ currents.
Recordings from HEK-293 cells were made 48-96 h posttransfection, at which time expression, as measured by GFP fluorescence, peaked. HL-1 cells were used for recording 24-36 h post-transfection. Current densities in HEK-293/Cav3.1 cell experiments were normalized to control for variation in current expression in the different frozen stocks of stable cell lines used. […] HL-1 experiments were performed using a single stock of cells. All HEK-293 data are from current records in which pipette and whole-cell capacitance were about 100% compensated and series resistance was compensated to >80%. Whole-cell capacitance and series resistance were not compensated for HL-1 recordings as currents were typically <100 pA. Series resistance values were typically <10 MX, and no records were used in which the voltage error (as defined by Ver=Imax×Ra) was greater than 5 mV. The holding potential of all protocols used for HEK-293 cells was −100 mV except for steady-state inactivation protocols where the holding potential was −120 mV. The holding potential for protocols used for HL-1 cells was −90 mV. Current-voltage relationships for all HEK-293 and HL-1 cells were measured using 50 ms test depolarizations. Peak current amplitudes for activation curves were determined by fitting tail currents, elicited by stepping membrane voltage from varying test potentials to −60 mV, with the Boltzman equation. Test potential steps for activation protocols were of varied durations, corresponding to the time to peak of the elicited current. Inactivation curves were determined by fitting peak amplitudes of currents, observed in a test pulse to −20 mV, following 500 ms steps to varying potentials, with the Boltzman equation. Time to peak was determined using the current-voltage protocol described above. Inactivation time constants were determined by fitting the decay phase of currents to an exponential equation and deactivation time constants were determined by fitting the decay phase of tail currents to an exponential equation. […] Currents were recorded at 40 kHz and on-line filtered at either 5 or 10 kHz. In some cases currents were off-line filtered at 1 kHz to further reduce noise. Current/voltage relationships and tail currents were recorded from HEK cells using an on-line P/−4 subtraction procedure. Calcium currents recorded from HL-1 cells were off-line leak subtracted. The average membrane capacitance of untransfected HEK-293 cells in pilot experiments was 12.5±1.4 pF (n=8). […]

[1] = system: endogenous LVA calcium current in HL-1 cells; test: Whole-cell patch clamp of endogenous LVA calcium current in HL-1 cells transfected with γ subunits; assay type: cell-based, mouse
Protocol: HL-1 cells were a gift from Dr. William C. Claycomb and were maintained as previously reported. Briefly, HL-1 cells were grown in HL-1 medium containing Claycomb medium (JRH Biosciences) supplemented with 10% fetal bovine serum (JRH Biosciences), 0.1 mM norepinephrine (Sigma), 2 mM L-glutamine (Sigma), and 100 U/ml:100 μg/ml:250 ng/ml of penicillin/streptomycin/ amphotericin B (Life Technologies) in a humidified 5% CO2 incubator at 37° C. Cells were passed when confluent at a 1:3 dilution into flasks or plates pre-coated with a 1:80 dilution of fibronectin and 0.02% gelatin (Sigma). Cells from passages 86-108 were used for this study.
as §1
2.4. Electrophysiology. Whole-cell calcium currents were recorded using an Axopatch-1 D patch clamp system and Clampex 8.0 software. Pipettes were fabricated from borosilicate glass and had typical resistances of 2-4 MΩ. […]
Recordings from HEK-293 cells were made 48-96 h posttransfection, at which time expression, as measured by GFP fluorescence, peaked. […] Current-voltage relationships for all HEK-293 and HL-1 cells were measured using 50 ms test depolarizations. Peak current amplitudes for activation curves were determined by fitting tail currents, elicited by stepping membrane voltage from varying test potentials to −60 mV, with the Boltzman equation. […] Inactivation curves were determined by fitting peak amplitudes of currents, observed in a test pulse to −20 mV, following 500 ms steps to varying potentials, with the Boltzman equation. Time to peak was determined using the current-voltage protocol described above. […]

Cav3.2 = molecular target: T2, Cav3.2 (Homo sapiens, UniProt O95180); test: Calcium current density in heterologous expression system, Cav3.2; assay type: cell-based; conditions: heterologous expression systems
T2 construct: expressed in transfected cells; host or cells: heterologous expression system (HEK-293 stably transfected with Cav3.2 is mentioned)

Cav2.3 = molecular target: T3, Cav2.3 (Homo sapiens, UniProt Q15878); test: Calcium current density in heterologous expression system, Cav2.3; assay type: cell-based; conditions: heterologous expression systems
T3 construct: expressed in transfected cells
T3 sequence (Q15878 whole entry): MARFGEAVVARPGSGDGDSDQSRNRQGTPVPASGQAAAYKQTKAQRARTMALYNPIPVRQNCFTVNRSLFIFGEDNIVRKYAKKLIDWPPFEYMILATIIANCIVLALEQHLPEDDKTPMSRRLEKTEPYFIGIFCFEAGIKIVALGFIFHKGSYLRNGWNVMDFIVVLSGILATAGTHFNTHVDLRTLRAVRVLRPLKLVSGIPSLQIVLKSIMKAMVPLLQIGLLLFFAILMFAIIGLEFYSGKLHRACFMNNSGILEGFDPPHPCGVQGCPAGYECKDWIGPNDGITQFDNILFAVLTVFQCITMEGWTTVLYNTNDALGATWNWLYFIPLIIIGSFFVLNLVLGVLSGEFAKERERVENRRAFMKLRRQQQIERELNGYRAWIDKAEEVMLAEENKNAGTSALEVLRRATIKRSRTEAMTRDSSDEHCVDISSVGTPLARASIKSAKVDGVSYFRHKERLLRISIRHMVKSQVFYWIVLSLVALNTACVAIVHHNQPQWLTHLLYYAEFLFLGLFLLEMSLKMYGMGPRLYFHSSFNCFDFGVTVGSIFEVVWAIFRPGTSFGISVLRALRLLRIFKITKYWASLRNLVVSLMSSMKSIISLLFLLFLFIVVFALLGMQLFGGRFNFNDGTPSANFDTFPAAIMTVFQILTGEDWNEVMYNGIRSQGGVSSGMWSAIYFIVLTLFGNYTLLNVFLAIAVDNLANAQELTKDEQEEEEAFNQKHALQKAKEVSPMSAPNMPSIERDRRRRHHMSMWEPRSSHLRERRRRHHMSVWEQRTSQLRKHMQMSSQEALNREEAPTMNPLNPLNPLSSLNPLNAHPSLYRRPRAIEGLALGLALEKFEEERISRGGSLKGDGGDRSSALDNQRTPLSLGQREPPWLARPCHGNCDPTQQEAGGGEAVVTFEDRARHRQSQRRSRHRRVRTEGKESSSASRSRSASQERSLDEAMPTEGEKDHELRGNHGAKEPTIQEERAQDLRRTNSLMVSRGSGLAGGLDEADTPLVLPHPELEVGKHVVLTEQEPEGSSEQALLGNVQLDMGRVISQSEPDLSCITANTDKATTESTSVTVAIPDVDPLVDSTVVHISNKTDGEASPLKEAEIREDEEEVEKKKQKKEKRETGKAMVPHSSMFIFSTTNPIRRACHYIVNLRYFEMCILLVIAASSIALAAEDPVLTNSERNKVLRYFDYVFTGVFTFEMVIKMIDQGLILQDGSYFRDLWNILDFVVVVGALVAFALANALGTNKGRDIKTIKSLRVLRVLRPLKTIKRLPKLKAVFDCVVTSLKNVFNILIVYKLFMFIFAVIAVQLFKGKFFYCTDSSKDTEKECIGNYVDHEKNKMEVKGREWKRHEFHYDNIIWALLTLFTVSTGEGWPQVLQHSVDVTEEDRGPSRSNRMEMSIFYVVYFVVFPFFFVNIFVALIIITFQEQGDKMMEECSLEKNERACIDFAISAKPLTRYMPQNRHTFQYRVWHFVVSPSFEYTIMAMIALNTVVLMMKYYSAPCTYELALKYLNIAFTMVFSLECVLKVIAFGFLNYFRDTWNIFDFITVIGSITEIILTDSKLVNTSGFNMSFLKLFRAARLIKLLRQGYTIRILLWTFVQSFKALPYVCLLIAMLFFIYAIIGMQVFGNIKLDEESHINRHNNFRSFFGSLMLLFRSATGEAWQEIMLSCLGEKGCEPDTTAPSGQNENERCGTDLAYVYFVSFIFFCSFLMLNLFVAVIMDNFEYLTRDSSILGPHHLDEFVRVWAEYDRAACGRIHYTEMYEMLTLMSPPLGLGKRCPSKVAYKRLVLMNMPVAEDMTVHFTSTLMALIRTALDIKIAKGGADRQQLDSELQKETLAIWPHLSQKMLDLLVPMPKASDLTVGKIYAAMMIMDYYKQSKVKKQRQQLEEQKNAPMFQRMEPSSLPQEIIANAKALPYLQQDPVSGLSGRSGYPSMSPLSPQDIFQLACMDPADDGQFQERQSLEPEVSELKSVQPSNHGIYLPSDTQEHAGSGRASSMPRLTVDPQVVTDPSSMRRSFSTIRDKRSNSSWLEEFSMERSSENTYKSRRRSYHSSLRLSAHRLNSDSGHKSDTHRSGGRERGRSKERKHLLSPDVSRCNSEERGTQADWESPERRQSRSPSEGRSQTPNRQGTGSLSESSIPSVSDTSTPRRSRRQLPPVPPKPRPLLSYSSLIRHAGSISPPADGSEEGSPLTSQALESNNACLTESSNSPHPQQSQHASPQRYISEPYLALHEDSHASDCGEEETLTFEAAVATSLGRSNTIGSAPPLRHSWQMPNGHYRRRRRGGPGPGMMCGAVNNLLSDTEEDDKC

T1 sequence (O43497 whole entry): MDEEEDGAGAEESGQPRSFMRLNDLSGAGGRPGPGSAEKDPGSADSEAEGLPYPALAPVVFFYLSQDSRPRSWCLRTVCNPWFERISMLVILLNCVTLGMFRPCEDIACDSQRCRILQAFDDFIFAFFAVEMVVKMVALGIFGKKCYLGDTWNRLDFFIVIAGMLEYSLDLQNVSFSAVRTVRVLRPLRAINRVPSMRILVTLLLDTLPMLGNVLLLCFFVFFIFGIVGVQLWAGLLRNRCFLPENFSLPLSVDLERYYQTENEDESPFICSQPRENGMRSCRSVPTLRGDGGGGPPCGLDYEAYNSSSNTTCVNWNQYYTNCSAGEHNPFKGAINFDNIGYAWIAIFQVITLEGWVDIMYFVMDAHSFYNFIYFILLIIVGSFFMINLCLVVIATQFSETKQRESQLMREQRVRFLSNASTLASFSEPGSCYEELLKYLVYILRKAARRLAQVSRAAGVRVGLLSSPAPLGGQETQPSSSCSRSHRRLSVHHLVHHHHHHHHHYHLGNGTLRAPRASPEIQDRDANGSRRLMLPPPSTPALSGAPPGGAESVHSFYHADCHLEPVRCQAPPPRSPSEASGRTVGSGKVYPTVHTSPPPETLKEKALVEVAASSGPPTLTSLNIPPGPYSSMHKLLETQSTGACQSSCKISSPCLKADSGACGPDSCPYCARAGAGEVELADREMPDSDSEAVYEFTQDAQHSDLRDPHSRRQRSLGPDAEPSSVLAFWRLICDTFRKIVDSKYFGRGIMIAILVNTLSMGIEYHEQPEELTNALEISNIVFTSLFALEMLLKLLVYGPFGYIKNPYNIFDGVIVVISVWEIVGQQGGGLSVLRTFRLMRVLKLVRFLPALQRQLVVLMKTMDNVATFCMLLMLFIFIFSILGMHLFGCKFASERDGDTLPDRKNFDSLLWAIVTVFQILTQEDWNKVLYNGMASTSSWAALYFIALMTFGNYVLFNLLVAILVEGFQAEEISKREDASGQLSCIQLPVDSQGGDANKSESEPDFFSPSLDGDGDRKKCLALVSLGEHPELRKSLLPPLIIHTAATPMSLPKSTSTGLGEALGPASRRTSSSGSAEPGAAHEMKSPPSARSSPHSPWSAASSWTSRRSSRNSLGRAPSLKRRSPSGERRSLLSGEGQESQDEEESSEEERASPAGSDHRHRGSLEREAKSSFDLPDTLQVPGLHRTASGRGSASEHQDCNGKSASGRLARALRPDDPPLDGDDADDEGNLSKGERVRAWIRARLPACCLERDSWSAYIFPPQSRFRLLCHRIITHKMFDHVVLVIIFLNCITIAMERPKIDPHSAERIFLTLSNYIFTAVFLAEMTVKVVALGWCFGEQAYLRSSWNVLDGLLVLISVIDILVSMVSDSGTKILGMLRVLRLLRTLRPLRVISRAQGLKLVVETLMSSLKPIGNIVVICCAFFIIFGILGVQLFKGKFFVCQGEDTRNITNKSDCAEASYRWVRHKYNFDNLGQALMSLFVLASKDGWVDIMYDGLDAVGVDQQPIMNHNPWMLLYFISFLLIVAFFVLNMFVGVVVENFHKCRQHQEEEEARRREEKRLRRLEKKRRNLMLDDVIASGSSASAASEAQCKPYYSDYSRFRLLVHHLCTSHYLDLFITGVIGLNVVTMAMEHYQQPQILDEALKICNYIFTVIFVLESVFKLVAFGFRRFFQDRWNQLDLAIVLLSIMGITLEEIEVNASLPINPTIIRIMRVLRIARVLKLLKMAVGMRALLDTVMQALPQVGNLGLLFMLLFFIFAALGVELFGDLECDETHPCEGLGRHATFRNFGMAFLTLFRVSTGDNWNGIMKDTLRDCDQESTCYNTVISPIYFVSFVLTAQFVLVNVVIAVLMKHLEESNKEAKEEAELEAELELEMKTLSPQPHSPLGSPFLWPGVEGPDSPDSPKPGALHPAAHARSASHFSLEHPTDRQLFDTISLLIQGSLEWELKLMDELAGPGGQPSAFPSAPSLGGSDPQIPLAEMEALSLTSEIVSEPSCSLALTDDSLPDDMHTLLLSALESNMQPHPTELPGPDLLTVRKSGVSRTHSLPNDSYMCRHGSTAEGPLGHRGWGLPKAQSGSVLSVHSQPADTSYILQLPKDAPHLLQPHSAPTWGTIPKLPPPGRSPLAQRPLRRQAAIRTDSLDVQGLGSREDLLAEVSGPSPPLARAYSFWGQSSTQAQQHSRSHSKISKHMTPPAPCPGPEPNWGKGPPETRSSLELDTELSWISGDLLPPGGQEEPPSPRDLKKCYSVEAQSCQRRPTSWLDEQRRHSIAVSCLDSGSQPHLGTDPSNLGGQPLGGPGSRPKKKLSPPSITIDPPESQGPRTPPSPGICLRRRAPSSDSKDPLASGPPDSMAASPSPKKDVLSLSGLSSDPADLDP

Row | Molecule | Effect on current kinetics or voltage dependency (Cav3.1) | Peak current density, % of control value (Cav3.1) | Activation V 0.5 (Cav3.1) | Activation k (Cav3.1) | Deactivation tau @ −100 mV, Fast (Cav3.1) | Inactivation Tau @ −20 mV (Cav3.1) | Inactivation V 0.5 (Cav3.1) | Inactivation k (Cav3.1) | Time to peak @ −20 mV (Cav3.1) | V peak (Cav3.1) | Decrease in Cav3.1 current density (Cav3.1; co-expression with Cav3.1 in HEK-293 cells) [%] | LVA current density [1] [pA/pF] | Reduction of endogenous LVA current density from control ([1]; transient expression) [%] | Effect on Cav3.2 calcium current density (Cav3.2) | Effect on Cav2.3 calcium current density (Cav2.3) | Effect on Cav3.1 current (Cav3.1; HEK-293 cells) | Peak current, % of control value (Cav3.1; doubling the amount of γ4 DNA transfected)
1 | γ6L: rat calcium channel γ6 subunit, long isoform (AF361343), SEQ ID NO:48 (protein, listed as Rattus norvegicus) MMWSNFFMQEEDRRRTAVGRRRAQEQQNLGLTPEREGKIKLGLLVAIVGATLAVLAVGTEFWVELNTYKTNGSAVCEAAHLGLWKVCIKRLWQADVPAGRETCGPAELPGEANCTYFKFFTTGENAHIFQRTTKKEVNLAAAVIAVLGLTAMALGCLCVIMVLSKGAEFLLRLGAVCFGLSGLLLFVSLEVFRHSVRALLQGVNPETPPAPRLAYEYSWSLGCGVGAGLILLLGGVCFLLLTLPSWPWRSLCPKRGGPTA | did not alter current kinetics or voltage dependency | 51%±17% | −36.3 ± 6.2 (n = 4) mV | 12.7 ± 1.5 (n = 4) | 1.54 ± 0.48 (n = 4) ms | 18.6 ± 1.1 (n = 6) ms | −78.5 ± 2.6 (n = 6) mV | 5.4 ± 0.3 (n = 6) | 6.0 ± 0.8 (n = 5) ms | −31.1 ± 3.1 (n = 9) mV | 49 | 3.37±0.62 | 63 | decreased | decreased | – | –
2 | γ4: rat calcium channel γ4 subunit (AF361341), SEQ ID NO:47 (protein, listed as Rattus norvegicus) MVRCDRGLQMLLTTAGAFAAFSLMAIAIGTDYWLYSSAHICNGTNLTMDDGPPPRRARGDLTHSGLWRVCCIEGIYKGHCFRINHFPEDNDYDHDSSEYLLRIVRASSVFPILSTILLLLGGLCIGAGRIYSRKNNIVLSAGILFVAAGLSNIIGIIVYISSNTGDPSDKRDEDKKNHYNYGWSFYFGALSFIVAETVGVLAVNIYIEKNKELRFKTKREFLKASSSSPYSRMPSYRYRRRRSRSSSRSTEASPSRDASPVGLKITGAIPMGELSMYTLSREPLKVTTAASYSPDQDAGFLQMHDFFQQDLKEGFHVSMLNRRTTPV | did not alter current kinetics or voltage dependency | 93%±7% | −37.3 ± 0.9 (n = 8) mV | 11.8 ± 0.5 (n = 8) | 1.84 ± 0.28 (n = 8) ms | 15.8 ± 0.7 (n = 7) ms | −79.2 ± 1.5 (n = 7) mV | 6.1 ± 0.2 (n = 7) | 5.2 ± 0.5 (n = 9) ms | −30.6 ± 1.5 (n = 9) mV | – | 9.14±1.34 | – | – | – | no significant effect | 128%±19%
